Test results taken from PMC5364462.

Molecular target: Myr-GCN4-GFP
Experiment: fluorescence correlation spectroscopy (FCS); GFP-tagged membrane control proteins in live cells, same instrument and illumination conditions; cell line not stated; median molecular brightness

Q: Myr-GCN4-GFP was tested. Which median molecular brightness did it give?
A: 746 cpsm
